Data taken from paper PMC12014896 (2025).

B1: COVIC-31 (antibody, V domains shown)
VH: EVQLVESGVEVKKPGASVKVSCKAFGYTFTGQDMHWVRQAPGQGLEWMGWINPSSAGTNYAQKFQGRVTMTRDTSISTAYMELSRLRSDDTSVYYCRKMLTIFGKVNQTMLLISGAKGQWSPSLQWGQGTMVTVSS
VL: DIVMTQTPLSLSVTPGQPASISCKSGQSLLHSDGKTYLYWYLQKPGQPPQLLIYEVSNRFSGVPDRFSGSGSGTDFTLKISRVEAEDVGVYYCMQSIQLPPTFGQGTKVEIK
B2: COVIC-290 (antibody, V domains shown)
VH: QMQLVQSGPEVKKPGTSVKVSCKASGFTFSSSAVQWVRQARGQHLEWIGWIVVGSGNTNYAQKFQERVTLTRDMSTRTAYMELSSLRSEDTAVYYCAAPNCNSTTCHDGFDIWGQGTVVTVSS
VL: EIVLTQSPGTLSLSPGERATLSCRASQSVRSSYLGWYQQKPGQAPRLLIYGASSRATGIPDRFSGSGSGTDFTLTISRLESEDFAVYYCQQYDNSPWTFGQGTKVEIK

Biological target: SARS-CoV-2 spike RBD (Wuhan-Hu-1) (Severe acute respiratory syndrome …, UniProt P0DTC2)
Assay: SPR

Binder	Kd [nM]
B1	70.2
B2	0.326
